Experimental data taken from US20210190798A1 (AstraZeneca / MedImmune, published 2021).

B1: human LIF (Leukemia Inhibitory Factor), expression host not stated at the place of use (ligand)
chain: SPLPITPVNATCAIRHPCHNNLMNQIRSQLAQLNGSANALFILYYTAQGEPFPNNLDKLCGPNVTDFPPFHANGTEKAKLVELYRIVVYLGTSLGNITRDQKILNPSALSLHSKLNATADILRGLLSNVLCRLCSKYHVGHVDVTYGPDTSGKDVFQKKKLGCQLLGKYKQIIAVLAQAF
notes: species not repeated there) and for the cell assays with endogenous or added human LIF; also called hLIF; Bt-LIF

Columns and labels:
[1] = molecular target: T1, recombinant human gp130 (human, UniProt P40189 23-619, limits assumed); assay: ELISA: LIF pre-incubated with B09 and added to a gp130-coated plate; the mAb part is detected with anti-rat IgG-HRP
T1 construct: Coated on ELISA plates
T1 sequence (looked up): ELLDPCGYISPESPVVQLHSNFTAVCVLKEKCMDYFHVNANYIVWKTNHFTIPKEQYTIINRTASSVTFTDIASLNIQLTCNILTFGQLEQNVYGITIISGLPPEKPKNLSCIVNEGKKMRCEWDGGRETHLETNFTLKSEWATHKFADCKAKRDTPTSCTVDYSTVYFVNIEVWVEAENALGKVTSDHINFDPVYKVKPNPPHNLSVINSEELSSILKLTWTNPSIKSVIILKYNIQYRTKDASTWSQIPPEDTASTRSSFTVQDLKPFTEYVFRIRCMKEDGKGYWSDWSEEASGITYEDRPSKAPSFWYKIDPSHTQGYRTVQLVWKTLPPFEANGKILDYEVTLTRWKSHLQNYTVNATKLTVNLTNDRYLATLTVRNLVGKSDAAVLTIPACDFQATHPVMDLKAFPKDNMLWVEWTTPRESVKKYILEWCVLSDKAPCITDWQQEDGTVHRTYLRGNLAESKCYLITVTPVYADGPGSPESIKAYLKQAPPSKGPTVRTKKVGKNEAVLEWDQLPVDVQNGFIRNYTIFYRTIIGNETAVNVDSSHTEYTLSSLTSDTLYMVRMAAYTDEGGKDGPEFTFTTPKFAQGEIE

[2] = molecular target: B1; assay: competitive binding assays against LIF
[3] = molecular target: T2, human LIF (HEK-293) (human, UniProt P15018 23-202); assay: MSD electrochemiluminescence sandwich assay (Example 23): A4 spot-coated as capture, Sulfo-Tag 7C3 (M017C3) as detection, rhLIF titrated with saturating h5D8
T2 construct: Bought recombinant glycosylated protein; also called hLIF (HEK 293); huLIF (mammalian)
Source text: Quality controls and samples are transferred in triplicate to the coated and blocked MSD plate. […] The intensity quantified by the system is proportional to the amount of bound antibody complexes and is expressed as RLU (Relative Light Units).

[4] = molecular target: T2, human LIF (HEK-293); assay: MSD electrochemiluminescence sandwich assay: mAb 3 (chimeric rabbit/human A4) as capture antibody, LIF titrated; detection antibody not named in the figure (7C3 in Example 23)
[5] = molecular target: T3, human IL-6 (E. coli) (human, UniProt P05231 30-212, limits assumed); assay: BLI (Octet), h5D8 amine-coupled on AR2G biosensor, cytokine as analyte
T3 construct: also called huIL-6 (E. coli)
Procedure: 9.0.0.26 as follows: Amine Reactive 2ndGeneration Biosensors (AR2G) were hydrated for a minimum of 15 minutes in water. […] Kinetics experiments were then performed with the following Dip and Read steps at 30° C., 1000rpm: vi) 60 seconds Baseline in lx kinetics buffer; vii) 180 seconds Association of appropriate serial dilutions of a cytokine in lx kinetics buffer; viii) 300 seconds Dissociation in 1X kinetics buffer; ix) Three Regeneration/Neutralization cycles alternating between 10mM glycine pH 2.0 and lx kinetics buffer respectively (5 seconds in each for 3 cycles).

[6] = molecular target: T4, recombinant human LIFR (LIF receptor) (human, UniProt P42702 45-833, limits assumed); assay: BLI (Octet RED 96), control experiment, h5D8 on AHC biosensor
T4 construct: Soluble analyte in the Octet assay and coated on ELISA plates; also called hLIFR
T4 sequence (looked up): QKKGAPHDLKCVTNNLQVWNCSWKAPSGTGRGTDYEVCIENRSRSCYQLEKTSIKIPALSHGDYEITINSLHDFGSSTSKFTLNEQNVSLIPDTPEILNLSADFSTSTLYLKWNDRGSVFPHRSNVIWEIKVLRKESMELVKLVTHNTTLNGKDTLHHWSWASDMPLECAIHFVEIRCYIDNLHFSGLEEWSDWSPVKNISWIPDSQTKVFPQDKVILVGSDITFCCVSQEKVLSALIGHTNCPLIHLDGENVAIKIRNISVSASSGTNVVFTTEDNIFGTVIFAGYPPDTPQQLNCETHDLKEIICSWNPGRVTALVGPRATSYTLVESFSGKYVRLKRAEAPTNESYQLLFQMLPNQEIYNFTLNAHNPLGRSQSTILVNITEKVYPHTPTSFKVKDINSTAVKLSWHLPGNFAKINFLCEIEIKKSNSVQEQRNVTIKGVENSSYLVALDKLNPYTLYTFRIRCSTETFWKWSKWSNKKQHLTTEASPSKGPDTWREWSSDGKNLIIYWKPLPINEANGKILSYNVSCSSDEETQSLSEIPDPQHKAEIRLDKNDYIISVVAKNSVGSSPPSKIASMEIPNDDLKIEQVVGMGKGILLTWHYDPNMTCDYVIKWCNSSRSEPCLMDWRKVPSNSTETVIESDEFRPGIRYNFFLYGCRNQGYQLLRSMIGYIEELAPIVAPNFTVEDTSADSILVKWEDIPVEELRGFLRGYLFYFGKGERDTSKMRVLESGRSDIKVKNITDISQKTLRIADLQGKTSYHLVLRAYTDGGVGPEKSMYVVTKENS

[7] = molecular target: B1; assay: cell-based or functional assay

T2 sequence (P15018 23-202 limits assumed): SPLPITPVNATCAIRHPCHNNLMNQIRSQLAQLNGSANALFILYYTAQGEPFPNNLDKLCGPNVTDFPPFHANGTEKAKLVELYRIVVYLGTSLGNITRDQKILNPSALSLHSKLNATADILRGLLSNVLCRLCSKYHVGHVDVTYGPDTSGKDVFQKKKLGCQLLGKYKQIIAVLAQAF
T3 sequence (P05231 30-212 limits assumed): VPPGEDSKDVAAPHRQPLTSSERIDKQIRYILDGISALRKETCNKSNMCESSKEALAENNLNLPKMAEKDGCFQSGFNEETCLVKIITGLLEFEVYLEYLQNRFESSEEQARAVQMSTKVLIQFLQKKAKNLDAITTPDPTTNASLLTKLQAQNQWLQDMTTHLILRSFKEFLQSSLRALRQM

## B1
[1]
  binding result: binds

B2: A4 (rabbit monoclonal anti-LIF capture antibody) (antibody, V domains shown)
VH: EQLEESVGDLVKPGASLTLTCTASGFSFSGLYYMCWVRQAPGKGLEWIACIWTGSTDSTYYATWAKGRFTISKTSSTTVTLQMTSLTVADTATYFCARGGGVPGDGYALWGPGTLVTVSS
VL: ELVMTQTPASVSEPVGGTVTINCQASEDISSNLVWYQQKSGQPPKLLIYDASMLASGVPSRFKGSGSGTQFTLTISDLECADGATYYCQSYYVASSSYFVNGFGGGTEVV
notes: Rabbit monoclonal antibody; also called capture antibody A4; rabbit A4 monoclonal capture antibody
[2]
  binding result: binds
[3]
  binding result: binds

B3: mAb 3 (antibody, V domains shown)
VH: EQLEESVGDLVKPGASLTLTCTASGFSFSGLYYMCWVRQAPGKGLEWIACIWTGSTDSTYYATWAKGRFTISKTSSTTVTLQMTSLTVADTATYFCARGGGVPGDGYALWGPGTLVTVSS
VL: ELVMTQTPASVSEPVGGTVTINCQASEDISSNLVWYQQKSGQPPKLLIYDASMLASGVPSRFKGSGSGTQFTLTISDLECADGATYYCQSYYVASSSYFVNGFGGGTEVV
notes: also called chimeric rabbit/human A4 antibody
[4]
  binding result: binds

B4: h5D8 (humanized 5D8 antibody comprising H2 and L2) (antibody, V domains shown)
VH: QVQLQESGGGLVKPGGSLRLSCAASGFTFSHAWMHWVRQAPGKGLEWVGQIKAKSDDYATYYAESVKGRFTISRDDSKNTLYLQMNSLKTEDTAVYYCTCWEWDLDFWGQGTMVTVSS
VL: DIVMTQTPLSSPVTLGQPASISCRSSQSLLDSDGHTYLNWLQQRPGQPPRLLIYSVSNLESGVPDRFSGSGAGTDFTLKISRVEAEDVGVYYCMQATHAPPYTFGQGTKLEIK
notes: also called H2L2; G (H2L2)
[5]
  binding result: no binding
[6]
  binding result: no binding
[7]
  IC50 for biological inhibition (pSTAT3, U-251 cells, serum starved): 490 picomolar
